One data set addresses T1, RBM7 1-98 (RRM) (Homo sapiens, UniProt Q9Y580 1-98).
T1 sequence: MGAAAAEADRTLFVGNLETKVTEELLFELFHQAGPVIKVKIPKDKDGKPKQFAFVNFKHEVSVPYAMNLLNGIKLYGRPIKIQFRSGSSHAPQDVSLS
Description: fluorescence anisotropy; KD value only in inset of the figure, not in material; 20 mM Tris/HCl pH 7.5, 150 mM NaCl, 2 mM DTT, 20 °C, 10 nM RNA, 50 µl. The following applies: protein: recombinant; label: 5'-6-FAM; single strand. (Polarisation of emitted light reports the rotation of a fluorescent probe.)

Data set [1] deals with T2, RBM7 1-98 (RRM);ZCCHC8Pro (proline-rich segment) (Homo sapiens;Homo sapiens, UniProt Q9Y580;Q6NZY4 1-98;285-324, |).
T2 sequence 1: T1 sequence
T2 sequence 2: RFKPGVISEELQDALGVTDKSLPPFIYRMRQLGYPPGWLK
As to the kind of experiment: fluorescence anisotropy; affinity stated similar to RBM7 alone; KD value only in figure inset; 20 mM Tris/HCl pH 7.5, 150 mM NaCl, 2 mM DTT, 20 °C, 10 nM RNA, 50 µl. Particulars: protein: recombinant;recombinant; tags: ;; copies: 1;1; label: 5'-6-FAM; single strand.

For data set [2], the target named is T3, RBM7^1–137 (Z-tagged RBM7, residues 1–137) (human, UniProt Q9Y580 1-137).
T3 construct: source: bacterial cells, in lysate (pull-downs); purified (MST)
T3 sequence (looked up): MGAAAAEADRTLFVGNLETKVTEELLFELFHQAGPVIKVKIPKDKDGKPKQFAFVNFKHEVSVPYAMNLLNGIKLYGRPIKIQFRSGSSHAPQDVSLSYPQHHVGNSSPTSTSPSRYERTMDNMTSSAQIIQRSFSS
Description: MST; 30 nM ZCCHC8^Pro-(GS)3-eYFP constant, unlabelled RBM7 1-137 titrated from 0.2 nM to 6.0 μM; 50 mM Tris/HCl pH 7.4, 150 mM NaCl, 10 mM MgCl2, 0.05% Tween 20; temperature jump analysis; triplicates. Particulars: both partners purified.

The record followed here is article PMC5146272, “Structure of the RBM7–ZCCHC8 core of the NEXT complex reveals connections to splicing factors” (Nature Communications, 2016).

B1: U8 RNA (ssRNA)
RNA: UUUUUUUU
Regarding B1, the binding result (with RBM7 1-98 (RRM); in data set [1]) was “binds” throughout.

B2: ZCCHC8^Pro-(GS)3-eYFP fusion protein (domain or fragment, human, UniProt Q6NZY4 285-324, looked up)
chain: T2 sequence 2
notes: eYFP joined by a Gly-Ser linker serves as the fluorophore of the MST; source: purified; not shown: (GS)3 linker and eYFP, C-terminal, kept
In general, Kd refers to the constant that tells how readily two partners part at equilibrium. A low value points to tighter binding. For B2, binding in data set [2] was characterised by a dissociation constant (Kd) of 28 nM.
